Key:
[1] = target: recombinant homotrimeric HA, A/swine/Ontario/01911-2/99 H4N6 (Influenza A virus A/swine/Ontario/01911-2/99 (H4N6)); experiment: trimeric HA microarray, transfection set 5; conditions: remark: other sources report otherwise
[2] = target: recombinant homotrimeric HA, A/Solomon Islands/3/06 H1N1 (Influenza A virus A/Solomon Islands/3/06 (H1N1)); experiment: trimeric HA microarray, transfection set 5; conditions: remark: other sources report otherwise
[3] = target: recombinant homotrimeric HA, A/Japan/305/57 H2N2 (Influenza A virus A/Japan/305/57 (H2N2)); experiment: trimeric HA microarray, transfection set 5; conditions: remark: other sources report otherwise
[4] = target: recombinant homotrimeric HA, A/Wisconsin/67/05 H3N2 (Influenza A virus A/Wisconsin/67/05 (H3N2)); experiment: trimeric HA microarray, transfection set 5; conditions: remark: other sources report otherwise
[5] = target: recombinant homotrimeric HA, A/South Carolina/1/18 H1N1 (Influenza A virus A/South Carolina/1/18 (H1N1)); experiment: trimeric HA microarray, transfection set 5; conditions: remark: other sources report otherwise
[6] = target: M2 protein of influenza A/Hong Kong/483/97 (H5N1) (Influenza A virus A/Hong Kong/483/97)
[7] = target: recombinant homotrimeric HA, A/Vietnam/1203/04 H5N1 (Influenza A virus A/Vietnam/1203/04 (H5N1)); experiment: trimeric HA microarray, transfection set 5; conditions: remark: other sources report otherwise
[8] = target: recombinant homotrimeric HA, A/Indonesia/5/05 H5N1 (Influenza A virus A/Indonesia/5/05 (H5N1)); experiment: trimeric HA microarray, transfection set 5; conditions: remark: other sources report otherwise
[9] = target: recombinant homotrimeric HA, A/California/4/09 H1N1 (Influenza A virus A/California/4/09 (H1N1)); experiment: trimeric HA microarray, transfection set 5; conditions: remark: other sources report otherwise
[10] = target: recombinant soluble homotrimeric HA of A/northern shoveler/California/HKWF115/07 (Influenza A virus A/northern shoveler/California/HKWF115/2007); experiment: microarray, BCC supernatant IgG, trimeric HA; conditions: remark: other sources report otherwise

Row | Binder | Trimeric HA Binding RLU [1] | Trimeric HA Binding RLU [2] | Trimeric HA Binding RLU [3] | Trimeric HA Binding RLU [4] | Trimeric HA Binding RLU [5] | FACS M2-HK MFI [6] | Trimeric HA Binding RLU [7] | Trimeric HA Binding RLU [8] | Trimeric HA Binding RLU [9] | Trimeric HA Binding: RLU [10]
1 | TCN-554 (5277_M05) (antibody, V domains shown) VH: QVQLVQSGADLKKPGASVKVSCKASGYTFTDYYIHWVRQAPGQGLEWMGWINPESGDTKYAQKFQGRVTMTRDTSITTAYMELGRLRSDDTAVYYCARDVSTTWSWFAPWGQGTLVTVSS VL: DIVMTQSPDSLAVSLGERATINCRSSQSIFHNSNNENYLAWYQQKPGQPPKLLIYWASTRESGVPDRFSGSGSGTDFTLTISSLQAEDVAVYFCQQYYNAPLTFGGGTKVEIK | 5400 RLU | 992 RLU | 2620 RLU | 25300 RLU | 1260 RLU | – | – | – | – | –
2 | 3242_P05 (antibody, V domains shown) VH: DMQLVESGGGLVPPGGSLRLSCAASGFSVSDNYINWVRQAPGKGLDWVSVFYSADRTSYADSVKGRFTVSSHDSKNTVYLQMNSLRAEDTAVYYCARVQKSYYGMDVWGQGTTVTVSS VL: GIQMTQSPSSLSASVGDRVTITCRASQSISRYLNWYLQKPGKAPKLLISGASSLQSGVPSRFSGTGSGTEFTLTISSLQPEDFATYYCQQTFSIPLFGQGTKVEIK | – | – | – | – | – | 596 MFI | – | – | – | –
3 | TCN-553 (5261_C18) (antibody, V domains shown) VH: QVQVVQSGTEVKKPGSSVKVSCQTSGGRFMSYAITWVRQAPGQGLEWMGGIVPVFGTANYAQKFQGRVTITTDDSTRTAYMELSSLRSEDTAVYYCGFRYGSGYGFDSWGQGTLVTVSS VL: EIVLTQSPGTLSLSPGERATLSCRASQSVSSSYLAWYQKKPGQAPRLLIYGASTRATGIPDRFTGSGSGTDFTLSISRLEPEDFAVYYCQHFGTSVFTFGGGTKVEIK | 12200 RLU | 49600 RLU | 39800 RLU | 25200 RLU | 41300 RLU | – | 19200 RLU | 31200 RLU | 23300 RLU | –
4 | TCN-557 (5081_A04) (antibody, V domains shown) VH: QVQLVQSGAEVKKPGASVKVSCKASGHTFTGYYIHWVRQAPGQGLEWMGWINPDSGATSSAQNFQGRVTMTGDTSSSTAYMELSRLSFDDTAVYYCARVLFTSPFDFWGEGTLVTVSS VL: QAVVTQEPSLAVSPGGTVTLTCGSSTGAVTRGHYPYWFQQKPGQAPRALIYDSAGNRHSWTPARFSGSLLGGKAALTLSGAQPEDEAEYYCLLSYSGVWVFGGGTKLTVL | 41500 RLU | 27000 RLU | 27300 RLU | 46100 RLU | 44900 RLU | – | 21300 RLU | 22200 RLU | 44400 RLU | –
5 | 3362_B11 (antibody, V domains shown) VH: QVQLQASGPGLVKPSETLSLTCTVSGDSITSGAYYWTWIRQHPGKGLEWIGYIYYSGNTYYNPSLKSRVTISLDTSKNQFSLKVNSVTAADTAVYYCARAASTSVLGYGMDVWGQGTTVTVSS VL: DIQMTQSPSSLSASVGDRVTITCRASQSISRYLNWYQQEPGKAPKLLVYAASSLQSGVPSRFSGSGSGTDFTLTISSLQPEDFATYYCQQSYSTPLTFGQGTRLEIK | – | – | – | – | – | 218 MFI | – | – | – | –
6 | TCN-552 (5249_I23) (antibody, V domains shown) VH: QVQVVQSGAEVKKPGSSVRVSCQASGGTFMNYAIIWVRRAPGQGLEWMGGIIPVFPTPNYAQMFQGRVTISTDESRSTSFLELTNLRYEDTAVYYCARRIYHGGNSGFDFWGQGTLVTVSS VL: EIVLTQSPATLSLSPGERATLSCRASQSVGNYLAWYQQKPGQAPRLLIYDSSNRAPGIPARFSGSGSGTDFTLTISSLAPEDFAVYYCQQRSKWPPMYSFGHGTKLEIK | 9080 RLU | 48600 RLU | 52000 RLU | 18500 RLU | 37400 RLU | – | 18500 RLU | 43400 RLU | 23500 RLU | –
7 | TCN-550 (5096_F06) (antibody, V domains shown) VH: QVQLQESGPGLVKPSETLSLTCTVSGASINSHYWSWIRQPPGKGLEWIGYVYYSGSTTYNPSLKSRVTLSVDTSKNQFSLNLSSVTAADTAFYYCARHPYDVLTGSGDWFDPWGQGTLVTVSS VL: SYVLTQAPSVSVAPGQTARITCGGNAIGSKKVHWYQHKAGQAPVLVVYDDTDRPSGIPERFSGSNSWSTATLTINRVEAGDEADYYCQVWDFTIDHVVFGGGTKLTVL | – | 758 RLU | 731 RLU | 37800 RLU | 1010 RLU | – | – | 9000 RLU | 628 RLU | –
8 | TCN-558 (5248_H10b) (antibody, V domains shown) VH: QVQLVQSGSEVKKPGTSVKVSCTASGSVFTNYGISWVRQAPGQGLEWMGGIIPLFGAAKYAQKFQGRVTITADESTKTVYMELSRLTSKDTAIYFCAKAPRVYEYYFDQWGQGTPVTVSS VL: EIVMTQFPATLSVSPGERVTLSCRASQSVSNNLAWYQQKPGQPPRLLIYDASTRATGVPAKFSGTGSGTEFTLSISSLQSEDFAVYYCQQYHNWPPSYSFGLGTKLEIK | 10000 RLU | 36100 RLU | 34400 RLU | 26600 RLU | 40700 RLU | – | – | – | 20200 RLU | –
9 | 3244_I10 (antibody, V domains shown) VH: QVQLQESGPGLLKPSDTLALTCTVSGGSITSDYWSWIRQPPGRGLDWIGFFYNGGSTKYNPSLKSRVTISADTSKNQLSLKLTSVTAADTGVYYCARHDAKFSGSYYVASWGQGTRVTVSS VL: DIQMTQSPSSLSASVGDRVTISCRASQSISTYLNWYQQQPGKAPKVLIFGATNLQSGVPSRFSGSGSGTDFTLTISSLQPEDFATYYCQQSYNTPLIFGQGTKLEIK | – | – | – | – | – | 434 MFI | – | – | – | –
10 | TCN-540 (5060_F05) (antibody, V domains shown) VH: QVQLVQSGGGVVQPGRSLRLSCAASGFTFSSYAMHWVRQAPGKGLEWVAIISYDGNDQYYTDSVKGRFTISRDSSKVYLQMHRLRPEDTAVYYCAKEFETSGYFHGSFDYWGQGILVTVSS VL: QSALTQPASVSGSPGQSITISCTGTSSDVGGYNYVSWYQQHPGKAPKLLIYEVTNWPSGVSNRFSGSKSGNTASLTISGLQAEDEADYYCSSYAGSSTWVFGGGTRVTVL | – | 1180 RLU | 47900 RLU | 53000 RLU | 1360 RLU | – | – | 2570 RLU | 984 RLU | –
11 | 3241_G23 (antibody, V domains shown) VH: QVQLQQSGPGLVKPSQTLSLTCTVSGGPVSGGGYSWNWIRQRPGQGLEWVGFMFHSGSPRYNPTLKSRITISVDTSKNLVSLKLSSVTAADTAVYFCARVGQMDKYYAMDVWGQGTTVTVSS VL: DIQMTQSPSSLSSSVGDRVTITCRASQSIGAYVNWYQQKAGKAPQVLIFGASNLQSGVPSRFSGSGSGTDFTLTISSLQPEDFATYFCQQTYSTPITFGQGTRLEIK | – | – | – | – | – | 1700 MFI | – | – | – | –
12 | TCN-546 (5089_L08) (antibody, V domains shown) VH: QVQLQQWGAGLLKPSETLSLTCGVYGGSLSDYYWSWIRQPPGKGLEWIGEINHSGGTNYNPSLKRRVTISVDTSKKQFSLKMNSVTAADTAVYYCARGTDPDTEVYCRAGNCAAFDFWGQGTLVTVSS VL: EIVLTQSPGTLSLSPGERATLSCRASHFVIGRAVAWYQQKPGQAPRLLIYGASSRATGIPDRFSGSGSGTDFTLTISRLETEDFAVFYCQHYGSSPRYAFGQGTKLEIK | – | – | 1730 RLU | 28500 RLU | 955 RLU | – | – | 40900 RLU | 1080 RLU | 1350 RLU
13 | TCN-542 (5079_A16) (antibody, V domains shown) VH: QVQLQESGPGLVKPSQTLSLTCTVSGGSISSGNYYWNWVRQHPGKGLEWIGYIYYRGSTFYNPSLKSRVTISIDTSKNQFSLRLSSVTAADTAVYYCAKDTRSSLDNYQYGMDVWGQGTTVTVSS VL: QTVVTQEPSLTVSPGGTVTLTCASSTGAVTSSYFPNWFQQKPGQAPRPLIYSTTIRHSWTPARFSGSLLGGKAALTLSGVQPEDEADYYCLLYSGGDPVAFGGGTKLTVL | 14300 RLU | – | 5180 RLU | – | 1120 RLU | – | – | – | – | 900 RLU
14 | TCN-537 (3194_D21) (antibody, V domains shown) VH: QVQLQQWGSGLLKPSETLSLTCAVYGGSFRDDYWTWIRQPPGKGLEWIGEINHSGRTNYNPSLKSRVTISVDTSLKQFSLKVISVTAADTAVYYCARGTSHVSRYFDWLPPTNWFDPWGQGTQVTVSS VL: DIVLTQSPGTLSLSPGERATLSCRASQSVSSSYLAWYQQKPGQAPRLVMYGAATRATGIPDRFSGSGSGPDFTLTISRLEPEDFAMYYCQQYGNSPITFGQGTRLEIK | 3280 RLU | – | 16200 RLU | 1940 RLU | 46800 RLU | – | – | – | 33800 RLU | –

— US20120207760A1
